Experimental data: patent US6953656B2, “Direct, externally imposed control of polypeptides” (Massachusetts Institute of Technology, priority 2000, dated 2005)
“Also recorded” adds a separate entry of the source. Blank lines part the entries; values can stand above or below the compound they belong to. Where no end group is shown, it is not given here.

Assays:
[1] = molecular target: thrombin (Homo sapiens, UniProt P00734); settings: cited from earlier work
[2] = molecular target: T1, Ribonuclease S (S-protein) (Bos taurus, UniProt P61823); experiment: RNase S activity assay: increase in acid soluble nucleotides (A280) during hydrolysis of poly-(C), with or without 1 GHz RFMF; type: biochemical
T1 construct: incubated with the rest of the Ribonuclease S complex, the S-protein; purchased Novagen, Madison, Wis
T1 sequence (P61823 47-150 limits assumed): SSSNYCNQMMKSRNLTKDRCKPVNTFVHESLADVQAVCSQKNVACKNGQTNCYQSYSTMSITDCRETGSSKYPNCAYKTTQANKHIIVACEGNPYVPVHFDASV

[3] = molecular target: T1, Ribonuclease S (S-protein); experiment: as above; type: biochemical; settings: for RNase S activity (digested polyC, A280) with the RFMF on compared with RFMF off: 37° C., as a function of reaction time
Experimental: In this example, ribonuclease S was associated with a gold nanocrystal modulator (the system described in Example 1). The activity of the enzyme was controlled by induction heating of the modulator using an alternating magnetic field. The frequency of the alternating magnetic field was 1 GHz in the radiofrequency range. Accordingly, the alternating magnetic field is referred to as a radiofrequency magnetic field (RFMF). The modulator S-peptide and S-protein complex was incubated with the substrate, polyC, in solution at 37° C. The tube containing the sample was placed in a coil inside which the RFMF was generated and switched on. Activity was monitored by measuring the amount of digested polyC in the solution. PolyC was purified from the rest of the sample by precipitation with trichloroacetic acid (TCA). The activity was the amount of digested polyC, which is determined by the optical absorption of the sample at 280 nm.
The assay for measuring RNase activity was based on the measurement of increase in acid soluble nucleotides during the hydrolysis of poly-(C) (FIG. 14(a)). All concentrations were expressed as the final concentrations in the assay system. The S-protein (Novagen, Madison, Wis.) with various concentrations of S18 peptide was pre-incubated in 20 mM Na-phosphate buffer, pH 6.0; 100 mM NaCl at 37° C. for 10 minutes followed by initiating the reaction by the addition of the substrate, 0.39 mM poly [C] (sigma). At different time intervals, aliquots were quenched with 5% trichloroacetic acid (TCA). The reaction mixture was kept on ice for 5 minutes and subsequently spun at 13,000 rpm (Biofuge A) for 10 min.
Alternating magnetic fields are generated by applying an electric current to a copper coil that coils around a quartz cuvette. Currents with frequencies in the radio frequency range are obtained by using a RF generator with a current amplifier. The RF is pulsed at 15 second intervals. The RF power levels are varied from −8 dBm to −0.1 dBm. The MF frequency used is 1 GHz.

Compound: CGAGAG-VRPEHPAETEYDSLYPEDDL (CGAGAGVRPEHPAETEYDSLYPEDDL; thrombin inhibitory peptide: fibrin 408-27) [408-427, fibrin gamma chain fragment peptide]
- Inhibition of thrombin activity [1]: strongly inhibit

- Enzymatic activity when combined with S-protein, no RF (RF OFF state) [3]: full enzymatic activity
Compound: S15: residues 1 to 15 of the wild type S-peptide of ribonuclease S (KETAAAKFERQHMDS) [reference compound]
- Enzymatic activity when combined with S-protein, no RF (RF OFF state) ([2]; listed as S-peptide with only the N-terminal 15 residues): completely restored the enzymatic activity

Compound: CGAGAG-NGDFEEIPEEYL (CGAGAGNGDFEEIPEEYL; thrombin inhibitory peptide: hirudin 53-64) [hirugen53-64, fragment of Hirudin]
- Affinity for thrombin [1]: very high affinity

Compound: NC(N)=NCCC[C@H](NC(=O)[C@@H]1CCCN1C(=O)[C@H](N)Cc1ccccc1)C(=O)CCl [PPACK, D-Phe-L-Pro-L-Arg-chloromenthy ketone]
- Inhibition of thrombin activity [1]: inhibitory effect

Compound: Hirudin
- Affinity for thrombin [1]: extremely high affinity
- Inhibition of thrombin activity [1]: inhibits the enzymatic cleavage of fibrinogen by thrombin

- RF power at the 50% activity ([3]; 1 GHz RFMF): −4 dBm
- Effect of higher RF levels on RNase S activity ([3]; RF −4, −3, −2 to −1 dBm, 1 GHz): drastic effect
- Effect of low RF levels on RNase S activity ([3]; RF −8 to −5 dBm, 1 GHz): no significant effect
- Activity once recovered after RF ([3]; after recovery time): fully active
- RNase S activity (digested polyC, A280) with the RFMF on compared with RFMF off ([3]; modulator linked to S-peptide, RFMF 1 GHz, listed as Au-S18/S peptide): reduced
- RNase S activity (digested polyC, A280) with the RFMF on compared with RFMF off ([3]; modulator linked to S-peptide, RFMF 1 GHz, listed as gold nanoparticle linked S-peptide): transiently halting the enzyme activity
- RNase S activity (digested polyC, A280) with the RFMF on compared with RFMF off ([3]; modulator linked to S-peptide, RFMF 1 GHz, listed as modulator S-peptide-S-protein complex): less than with the RFMF off
Compound: Au-S18: S18 peptide covalently linked via N-terminal cysteine to a single 1.4 nm gold nanocrystal; tested complexed with S-protein (CGGKETAAAKFERQHMDS; also: linked via N-terminal cysteine to a 1.4 nm gold nanocrystal)
- Enzymatic activity when combined with S-protein, no RF (RF OFF state) ([2]; listed as gold nanoparticle linked S-peptide): indistinguishable from the S-peptide without the nanoparticles
- Enzymatic activity when combined with S-protein, no RF (RF OFF state) [3]: active
- RNase S activity with the RFMF on compared with RFMF off as a function of modulator-S-peptide concentration ([3]; modulator linked to S-peptide, RFMF 1 GHz, entire concentration range): significantly less than with the RFMF off

Compound: CGAGAG-AETEYDSLYPEDDL (CGAGAGAETEYDSLYPEDDL; thrombin inhibitory peptide: fibrin 414-27) [414-427, fibrin gamma chain fragment peptide]
- Inhibition of thrombin activity [1]: strongly inhibit

Compound: n-CGGKETAAAKFERQHMDS-c (S18 peptide)
- Enzymatic activity when combined with S-protein, no RF (RF OFF state) [3]: restored the RNase S enzyme activity; also recorded: indistinguishable from that of the S15 native peptide
